Assay [1] has as its target ASB9 bait in the pAcGFP1-C vector (pAcGFP1-ASB9) (bovine). Description: co-IP; Matchmaker Co-IP system; HEK 293 cells co-transfected with the pAcGFP1 bait and the pProLabel prey; co-immunoprecipitation with protein G Plus/A agarose beads, read by the ProLabel enzyme complementation assay (RLU every 5 min for 45 min).
The target in assay [2] is pAcGFP1-53 (positive control bait) (UniProt P02340). Described as above.
UniProt P02340, sequence (P02340 whole entry): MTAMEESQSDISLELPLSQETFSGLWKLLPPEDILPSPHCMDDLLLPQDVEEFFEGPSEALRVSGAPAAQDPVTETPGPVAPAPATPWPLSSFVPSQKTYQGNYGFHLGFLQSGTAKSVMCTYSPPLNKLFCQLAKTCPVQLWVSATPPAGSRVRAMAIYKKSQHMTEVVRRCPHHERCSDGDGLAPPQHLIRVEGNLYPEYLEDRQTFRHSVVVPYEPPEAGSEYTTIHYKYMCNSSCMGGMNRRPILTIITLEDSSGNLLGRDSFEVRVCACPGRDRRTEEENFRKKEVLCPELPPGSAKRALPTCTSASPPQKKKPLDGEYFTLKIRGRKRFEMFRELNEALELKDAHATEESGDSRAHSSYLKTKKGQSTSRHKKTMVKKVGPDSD

On to “Hypoxia inducible factor 1, alpha subunit (HIF1A) in the pProLabel-C vector (natural protein)”, for which, in assay [1], the fold induction of ProLabel enzymatic activity after co-IP, against the negative control, at 40 minutes was found to be 13 fold.
With “ProLabel-T (positive control prey) (natural protein)”, in assay [2], the fold induction of ProLabel enzymatic activity after co-IP (positive control) turned out to be 37 fold.
“Tumor necrosis factor alpha-induced protein 6 (TNFAIP6) in the pProLabel-C vector (natural protein)”: the fold induction of ProLabel enzymatic activity after co-IP, against the negative control, at 40 minutes in assay [1] is 18 fold.
